Data from publication PMC3528738 (PLoS ONE, 2012).
Where no end group is shown, it is not given here.

Biological target: T1, MPERp (HIV-1 (HXBc2 isolate), C-terminal carboxamide)
T1 construct: also called MPER peptide
Assay: cross-linking; peptides (10 µg) in solution incubated with 20 µM BS3 for 1 h at 37°C, TCA precipitation, Tricine SDS-PAGE; detection by Western blot with MAb2F5 or by NBD fluorescence in the gel
Settings: both partners purified

T1 sequence (P03375 656-683): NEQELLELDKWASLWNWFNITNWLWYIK

B1: FPp (peptide)
peptide: AVGIGALFLGFLGAAGSTMGARSKKK-NH2
notes: HIV-1 gp160 (gp41 amino-terminal fusion peptide), HXBc2 isolate, residues 512-534; three lysines added at the C-terminus, not of gp160 (printed as 512-534-KKK); C-terminal KKK is added to the natural stretch; also called FP peptide; fusion peptide; source: synthetic peptide (solid-phase synthesis, Fmoc chemistry; purified by HPLC)
binding result: binds
